According to US20180155451A1 (published 2018):

T1: FcγRIIb (human, UniProt P31994 43-217)
T1 construct: extracellular domain; also called 2b; FcgRIIb
T1 sequence (looked up): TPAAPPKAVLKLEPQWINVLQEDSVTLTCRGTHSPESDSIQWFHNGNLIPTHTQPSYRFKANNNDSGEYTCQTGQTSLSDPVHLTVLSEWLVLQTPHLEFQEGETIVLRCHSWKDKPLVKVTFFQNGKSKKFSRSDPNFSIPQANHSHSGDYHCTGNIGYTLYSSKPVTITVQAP

T2: FcγRIIa R (human, UniProt P12318 34-217)
T2 construct: extracellular domain; also called FcgRIIa R type; 2aR
T2 sequence (looked up): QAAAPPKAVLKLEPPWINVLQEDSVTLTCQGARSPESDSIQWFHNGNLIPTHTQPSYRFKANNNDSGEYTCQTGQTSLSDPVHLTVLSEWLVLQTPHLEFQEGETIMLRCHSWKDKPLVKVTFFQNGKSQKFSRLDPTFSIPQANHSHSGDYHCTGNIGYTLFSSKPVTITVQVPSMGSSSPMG

B1: GpH7-B3 variant G237_02A/GpL16-k0 (antibody, human IgG1, kappa)
heavy: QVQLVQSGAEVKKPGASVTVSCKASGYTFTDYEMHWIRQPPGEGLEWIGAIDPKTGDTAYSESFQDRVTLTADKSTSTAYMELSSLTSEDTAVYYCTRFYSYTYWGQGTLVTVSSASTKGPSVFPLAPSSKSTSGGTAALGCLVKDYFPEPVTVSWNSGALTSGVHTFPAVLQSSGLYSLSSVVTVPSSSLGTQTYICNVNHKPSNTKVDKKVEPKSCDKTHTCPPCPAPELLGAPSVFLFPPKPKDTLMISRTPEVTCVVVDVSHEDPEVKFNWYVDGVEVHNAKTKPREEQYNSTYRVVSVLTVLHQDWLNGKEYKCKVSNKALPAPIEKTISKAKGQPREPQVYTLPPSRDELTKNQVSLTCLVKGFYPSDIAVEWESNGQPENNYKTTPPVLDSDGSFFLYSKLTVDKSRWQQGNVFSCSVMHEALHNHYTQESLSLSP
light: DIVMTQSPLSLPVTPGEPASISCQASESLVHSNRNTYLHWYLQKPGQSPQLLIYKVSNRFSGVPDRFSGSGSGTDFTLKISRVEAEDVGVYYCSQNTHVPPTFGQGTKVEIERTVAAPSVFIFPPSDEQLKSGTASVVCLLNNFYPREAKVQWKVDNALQSGNSQESVTEQDSKDSTYSLSSTLTLSKADYEKHKVYACEVTHQGLSSPVTKSFNRGEC
notes: also called Ho Ab G237_02A
B2: GpH7-B3 variant L234_09D/GpL16-k0 (antibody, human IgG1, kappa)
heavy: not shown
light: B1 light
notes: also called Ho Ab L234_09D
B3: GpH7-B3 variant G237_08L/GpL16-k0 (antibody, human IgG1, kappa)
heavy: not shown
light: B1 light
notes: also called Ho Ab G237_08L
B4: GpH7-B3 variant I336_08L/GpL16-k0 (antibody, human IgG1, kappa)
heavy: not shown
light: B1 light
notes: also called Ho Ab I336_08L
B5: GpH7-B3 variant G237_09D/GpL16-k0 (antibody, human IgG1, kappa)
heavy: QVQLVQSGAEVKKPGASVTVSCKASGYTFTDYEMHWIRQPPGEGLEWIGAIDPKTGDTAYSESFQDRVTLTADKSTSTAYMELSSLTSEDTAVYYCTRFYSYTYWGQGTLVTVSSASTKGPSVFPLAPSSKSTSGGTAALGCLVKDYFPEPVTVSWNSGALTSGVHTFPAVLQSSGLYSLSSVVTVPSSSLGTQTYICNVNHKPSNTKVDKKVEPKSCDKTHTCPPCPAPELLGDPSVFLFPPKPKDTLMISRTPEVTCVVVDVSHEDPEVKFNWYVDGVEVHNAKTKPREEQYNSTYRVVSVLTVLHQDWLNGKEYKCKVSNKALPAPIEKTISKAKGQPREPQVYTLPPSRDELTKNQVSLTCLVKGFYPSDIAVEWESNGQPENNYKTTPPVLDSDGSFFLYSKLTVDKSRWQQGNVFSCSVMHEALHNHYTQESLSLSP
light: B1 light
notes: also called Ho Ab G237_09D
B6: GpH7-B3 variant N325_14T/GpL16-k0 (antibody, human IgG1, kappa)
heavy: not shown
light: B1 light
notes: also called Ho Ab N325_14T
B7: GpH7-B3 variant P271_08L/GpL16-k0 (antibody, human IgG1, kappa)
heavy: not shown
light: B1 light
notes: also called Ho Ab P271_08L
B8: GpH7-B3 variant N325_07I/GpL16-k0 (antibody, human IgG1, kappa)
heavy: not shown
light: B1 light
notes: also called Ho Ab N325_07I
B9: GpH7-B3 variant I332_14T/GpL16-k0 (antibody, human IgG1, kappa)
heavy: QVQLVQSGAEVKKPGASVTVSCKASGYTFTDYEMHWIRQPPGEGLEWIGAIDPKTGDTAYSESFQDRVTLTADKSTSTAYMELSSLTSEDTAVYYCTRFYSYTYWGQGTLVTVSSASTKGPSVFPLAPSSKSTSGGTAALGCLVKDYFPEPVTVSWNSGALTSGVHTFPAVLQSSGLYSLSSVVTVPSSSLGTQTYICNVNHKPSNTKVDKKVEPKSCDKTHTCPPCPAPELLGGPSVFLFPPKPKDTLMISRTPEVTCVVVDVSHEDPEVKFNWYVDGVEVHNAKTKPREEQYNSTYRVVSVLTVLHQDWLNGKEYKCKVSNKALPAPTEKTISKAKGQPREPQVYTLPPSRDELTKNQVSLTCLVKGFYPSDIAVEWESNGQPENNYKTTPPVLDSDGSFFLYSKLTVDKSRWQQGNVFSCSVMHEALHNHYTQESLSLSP
light: B1 light
notes: also called Ho Ab I332_14T
B10: GpH7-B3 variant G237_04F/GpL16-k0 (antibody, human IgG1, kappa)
heavy: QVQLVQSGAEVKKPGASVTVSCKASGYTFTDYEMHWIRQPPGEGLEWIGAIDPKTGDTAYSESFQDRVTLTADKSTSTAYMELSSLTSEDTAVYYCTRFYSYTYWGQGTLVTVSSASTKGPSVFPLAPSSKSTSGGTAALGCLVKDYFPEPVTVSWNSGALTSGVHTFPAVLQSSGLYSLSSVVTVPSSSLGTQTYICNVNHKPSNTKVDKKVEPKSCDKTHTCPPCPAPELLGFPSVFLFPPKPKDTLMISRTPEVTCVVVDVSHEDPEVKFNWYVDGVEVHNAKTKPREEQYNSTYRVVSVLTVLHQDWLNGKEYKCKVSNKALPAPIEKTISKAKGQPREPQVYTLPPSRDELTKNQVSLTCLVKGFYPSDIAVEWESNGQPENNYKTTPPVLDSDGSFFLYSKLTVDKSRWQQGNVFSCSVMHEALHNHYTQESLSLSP
light: B1 light
notes: also called Ho Ab G237_04F
B11: GpH7-B3 variant S239_10E/GpL16-k0 (antibody, human IgG1, kappa)
heavy: not shown
light: B1 light
notes: also called Ho Ab S239_10E
B12: GpH7-B3 variant N325_20W/GpL16-k0 (antibody, human IgG1, kappa)
heavy: not shown
light: B1 light
notes: also called Ho Ab N325_20W
B13: GpH7-B3 variant N325_09D/GpL16-k0 (antibody, human IgG1, kappa)
heavy: not shown
light: B1 light
notes: also called Ho Ab N325_09D
B14: GpH7-B3 variant P331_16H/GpL16-k0 (antibody, human IgG1, kappa)
heavy: not shown
light: B1 light
notes: also called Ho Ab P331_16H
B15: GpH7-B3 variant S267_03V/GpL16-k0 (antibody, human IgG1, kappa)
heavy: not shown
light: B1 light
notes: also called Ho Ab S267_03V
B16: GpH7-B3 variant P238_03V/GpL16-k0 (antibody, human IgG1, kappa)
heavy: not shown
light: B1 light
notes: also called Ho Ab P238_03V
B17: GpH7-B3 variant H268_05P/GpL16-k0 (antibody, human IgG1, kappa)
heavy: not shown
light: B1 light
notes: also called Ho Ab H268_05P
B18: GpH7-B3 variant P238_04F/GpL16-k0 (antibody, human IgG1, kappa)
heavy: not shown
light: B1 light
notes: also called Ho Ab P238_04F
B19: GpH7-B3 variant N325_13S/GpL16-k0 (antibody, human IgG1, kappa)
heavy: not shown
light: B1 light
notes: also called Ho Ab N325_13S
B20: GpH7-B3 variant H268_03V/GpL16-k0 (antibody, human IgG1, kappa)
heavy: not shown
light: B1 light
notes: also called Ho Ab H268_03V
B21: GpH7-B3 variant S239_08L/GpL16-k0 (antibody, human IgG1, kappa)
heavy: not shown
light: B1 light
notes: also called Ho Ab S239_08L
B22: GpH7-B3 variant G237_15Y/GpL16-k0 (antibody, human IgG1, kappa)
heavy: not shown
light: B1 light
notes: also called Ho Ab G237_15Y
B23: GpH7-B3 variant I332_02A/GpL16-k0 (antibody, human IgG1, kappa)
heavy: not shown
light: B1 light
notes: also called Ho Ab I332_02A
B24: GpH7-B3 variant I336_06M/GpL16-k0 (antibody, human IgG1, kappa)
heavy: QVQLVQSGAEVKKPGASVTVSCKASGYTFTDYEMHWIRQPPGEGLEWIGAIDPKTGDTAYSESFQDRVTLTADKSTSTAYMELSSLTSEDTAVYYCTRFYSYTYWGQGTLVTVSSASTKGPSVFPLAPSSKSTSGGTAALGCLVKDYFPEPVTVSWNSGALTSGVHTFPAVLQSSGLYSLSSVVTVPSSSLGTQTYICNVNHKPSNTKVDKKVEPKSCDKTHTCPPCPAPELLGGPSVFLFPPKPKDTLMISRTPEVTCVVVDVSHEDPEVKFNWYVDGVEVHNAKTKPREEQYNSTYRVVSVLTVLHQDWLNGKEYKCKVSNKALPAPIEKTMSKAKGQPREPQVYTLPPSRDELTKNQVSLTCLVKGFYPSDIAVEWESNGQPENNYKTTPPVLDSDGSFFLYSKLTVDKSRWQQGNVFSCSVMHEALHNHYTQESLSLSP
light: B1 light
notes: also called Ho Ab I336_06M
B25: GpH7-B3 variant A327_07I/GpL16-k0 (antibody, human IgG1, kappa)
heavy: not shown
light: B1 light
notes: also called Ho Ab A327_07I
B26: GpH7-B3 variant G237_20W/GpL16-k0 (antibody, human IgG1, kappa)
heavy: not shown
light: B1 light
notes: also called Ho Ab G237_20W
B27: GpH7-B3 variant K326_07I/GpL16-k0 (antibody, human IgG1, kappa)
heavy: not shown
light: B1 light
notes: also called Ho Ab K326_07I
B28: GpH7-B3 variant G237_19Q/GpL16-k0 (antibody, human IgG1, kappa)
heavy: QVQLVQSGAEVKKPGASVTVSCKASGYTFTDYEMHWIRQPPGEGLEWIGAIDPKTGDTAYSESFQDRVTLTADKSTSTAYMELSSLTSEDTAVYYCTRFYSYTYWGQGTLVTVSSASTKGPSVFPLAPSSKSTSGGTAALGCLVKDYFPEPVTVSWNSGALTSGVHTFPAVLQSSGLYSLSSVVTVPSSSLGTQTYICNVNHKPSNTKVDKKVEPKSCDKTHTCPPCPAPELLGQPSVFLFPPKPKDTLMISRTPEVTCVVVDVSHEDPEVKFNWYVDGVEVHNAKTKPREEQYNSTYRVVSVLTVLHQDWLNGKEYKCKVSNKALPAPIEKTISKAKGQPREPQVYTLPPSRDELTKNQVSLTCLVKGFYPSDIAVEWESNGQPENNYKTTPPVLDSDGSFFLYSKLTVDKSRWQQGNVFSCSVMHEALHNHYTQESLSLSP
light: B1 light
notes: also called Ho Ab G237_19Q
B29: GpH7-B3 variant L234_10E/GpL16-k0 (antibody, human IgG1, kappa)
heavy: not shown
light: B1 light
notes: also called Ho Ab L234_10E
B30: GpH7-B3 variant K326_08L/GpL16-k0 (antibody, human IgG1, kappa)
heavy: not shown
light: B1 light
notes: also called Ho Ab K326_08L
B31: GpH7-B3 variant N325_08L/GpL16-k0 (antibody, human IgG1, kappa)
heavy: not shown
light: B1 light
notes: also called Ho Ab N325_08L
B32: GpH7-B3 variant P331_20W/GpL16-k0 (antibody, human IgG1, kappa)
heavy: not shown
light: B1 light
notes: also called Ho Ab P331_20W
B33: GpH7-B3 variant P331_02A/GpL16-k0 (antibody, human IgG1, kappa)
heavy: not shown
light: B1 light
notes: also called Ho Ab P331_02A
B34: GpH7-B3 variant P238_06M/GpL16-k0 (antibody, human IgG1, kappa)
heavy: not shown
light: B1 light
notes: also called Ho Ab P238_06M
B35: GpH7-B3 variant A330_05P/GpL16-k0 (antibody, human IgG1, kappa)
heavy: not shown
light: B1 light
notes: also called Ho Ab A330_05P
B36: GpH7-B3 variant G237_06M/GpL16-k0 (antibody, human IgG1, kappa)
heavy: not shown
light: B1 light
notes: also called Ho Ab G237_06M
B37: GpH7-B3 variant G237_13S/GpL16-k0 (antibody, human IgG1, kappa)
heavy: not shown
light: B1 light
notes: also called Ho Ab G237_13S
B38: GpH7-B3 variant N325_15Y/GpL16-k0 (antibody, human IgG1, kappa)
heavy: not shown
light: B1 light
notes: also called Ho Ab N325_15Y
B39: GpH7-B3 variant A330_01G/GpL16-k0 (antibody, human IgG1, kappa)
heavy: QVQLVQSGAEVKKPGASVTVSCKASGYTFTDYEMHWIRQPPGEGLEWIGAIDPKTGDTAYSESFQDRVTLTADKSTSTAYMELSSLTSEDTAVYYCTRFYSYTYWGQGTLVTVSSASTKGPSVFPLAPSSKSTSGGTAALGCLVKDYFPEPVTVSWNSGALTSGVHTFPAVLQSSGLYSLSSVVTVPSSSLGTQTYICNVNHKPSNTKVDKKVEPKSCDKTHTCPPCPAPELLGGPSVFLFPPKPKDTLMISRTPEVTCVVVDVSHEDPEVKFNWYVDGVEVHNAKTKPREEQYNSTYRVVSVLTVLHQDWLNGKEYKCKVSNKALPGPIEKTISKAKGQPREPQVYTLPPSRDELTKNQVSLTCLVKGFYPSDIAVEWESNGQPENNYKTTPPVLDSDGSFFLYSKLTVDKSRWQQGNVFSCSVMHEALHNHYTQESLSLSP
light: B1 light
notes: also called Ho Ab A330_01G
B40: GpH7-B3 variant P238_09D/GpL16-k0 (antibody, human IgG1, kappa)
heavy: not shown
light: B1 light
notes: also called Ho Ab P238_09D
B41: GpH7-B3 variant G237_18N/GpL16-k0 (antibody, human IgG1, kappa)
heavy: not shown
light: B1 light
notes: also called Ho Ab G237_18N
B42: GpH7-B3 variant A327_18N/GpL16-k0 (antibody, human IgG1, kappa)
heavy: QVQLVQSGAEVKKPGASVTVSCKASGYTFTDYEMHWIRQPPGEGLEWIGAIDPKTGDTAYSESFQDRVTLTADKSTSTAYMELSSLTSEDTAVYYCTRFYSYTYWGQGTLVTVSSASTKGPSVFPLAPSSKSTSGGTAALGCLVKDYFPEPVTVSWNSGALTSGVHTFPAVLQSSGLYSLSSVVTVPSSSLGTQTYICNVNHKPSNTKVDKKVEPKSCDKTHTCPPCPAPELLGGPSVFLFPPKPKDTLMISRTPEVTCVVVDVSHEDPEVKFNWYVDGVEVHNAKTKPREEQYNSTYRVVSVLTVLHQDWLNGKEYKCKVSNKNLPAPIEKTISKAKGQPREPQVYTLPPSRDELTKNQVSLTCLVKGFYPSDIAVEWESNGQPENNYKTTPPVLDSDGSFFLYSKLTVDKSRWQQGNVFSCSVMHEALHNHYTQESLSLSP
light: B1 light
notes: also called Ho Ab A327_18N
B43: GpH7-B3 variant N325_10E/GpL16-k0 (antibody, human IgG1, kappa)
heavy: not shown
light: B1 light
notes: also called Ho Ab N325_10E
B44: GpH7-B3 variant S239_18N/GpL16-k0 (antibody, human IgG1, kappa)
heavy: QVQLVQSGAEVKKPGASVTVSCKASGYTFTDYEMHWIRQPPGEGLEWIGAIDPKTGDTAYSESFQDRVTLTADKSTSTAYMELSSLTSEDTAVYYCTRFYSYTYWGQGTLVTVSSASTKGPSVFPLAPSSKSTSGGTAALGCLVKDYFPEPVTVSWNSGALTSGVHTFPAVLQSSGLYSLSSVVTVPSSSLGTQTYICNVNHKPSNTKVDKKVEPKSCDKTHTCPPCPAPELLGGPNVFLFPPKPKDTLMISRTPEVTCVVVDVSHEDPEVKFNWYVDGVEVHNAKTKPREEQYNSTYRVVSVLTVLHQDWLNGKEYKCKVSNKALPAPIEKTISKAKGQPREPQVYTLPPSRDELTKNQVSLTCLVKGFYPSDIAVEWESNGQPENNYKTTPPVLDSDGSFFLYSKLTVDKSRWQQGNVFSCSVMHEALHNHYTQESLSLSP
light: B1 light
notes: also called Ho Ab S239_18N
B45: GpH7-B3 variant K326_20W/GpL16-k0 (antibody, human IgG1, kappa)
heavy: not shown
light: B1 light
notes: also called Ho Ab K326_20W
B46: GpH7-B3 variant P331_15Y/GpL16-k0 (antibody, human IgG1, kappa)
heavy: not shown
light: B1 light
notes: also called Ho Ab P331_15Y
B47: GpH7-B3 variant P331_04F/GpL16-k0 (antibody, human IgG1, kappa)
heavy: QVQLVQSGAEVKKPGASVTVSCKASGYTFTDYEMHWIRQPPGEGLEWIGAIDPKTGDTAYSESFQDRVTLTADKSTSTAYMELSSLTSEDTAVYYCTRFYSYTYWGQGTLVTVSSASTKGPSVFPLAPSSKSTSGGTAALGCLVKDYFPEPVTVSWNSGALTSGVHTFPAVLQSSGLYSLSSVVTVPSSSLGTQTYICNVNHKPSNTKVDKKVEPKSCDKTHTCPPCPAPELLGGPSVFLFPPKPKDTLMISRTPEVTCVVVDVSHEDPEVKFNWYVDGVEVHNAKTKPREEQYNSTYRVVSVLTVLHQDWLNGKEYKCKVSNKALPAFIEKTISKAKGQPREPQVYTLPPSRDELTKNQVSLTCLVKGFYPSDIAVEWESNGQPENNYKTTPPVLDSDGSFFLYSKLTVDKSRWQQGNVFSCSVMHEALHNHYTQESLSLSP
light: B1 light
notes: also called Ho Ab P331_04F
B48: GpH7-B3 variant G237_10E/GpL16-k0 (antibody, human IgG1, kappa)
heavy: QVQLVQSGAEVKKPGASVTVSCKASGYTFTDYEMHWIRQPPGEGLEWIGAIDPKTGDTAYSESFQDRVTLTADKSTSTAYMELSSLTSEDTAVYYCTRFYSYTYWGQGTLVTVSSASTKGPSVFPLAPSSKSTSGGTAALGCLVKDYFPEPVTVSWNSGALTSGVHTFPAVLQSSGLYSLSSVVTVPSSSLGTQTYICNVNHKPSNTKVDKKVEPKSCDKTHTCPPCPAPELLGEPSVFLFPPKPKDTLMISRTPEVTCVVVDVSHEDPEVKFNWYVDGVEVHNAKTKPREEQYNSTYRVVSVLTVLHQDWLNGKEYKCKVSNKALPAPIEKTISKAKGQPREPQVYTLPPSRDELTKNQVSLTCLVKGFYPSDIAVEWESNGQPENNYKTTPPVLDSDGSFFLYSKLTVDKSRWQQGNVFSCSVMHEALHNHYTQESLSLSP
light: B1 light
notes: also called Ho Ab G237_10E
B49: GpH7-B3 variant H268_15Y/GpL16-k0 (antibody, human IgG1, kappa)
heavy: not shown
light: B1 light
notes: also called Ho Ab H268_15Y

Legend:
[1] = biological target: T1, FcγRIIb; experiment: SPR (Biacore), binding relative to GpH7-B3/GpL16-k0 = 100
Description: (§1) Analysis of interaction between objective antibody and the FcγR was carried out using Biacore T100 (GE Healthcare). HBS-EP+ (GE Healthcare) was used as the running buffer, and the measurement temperature was set to 25° C. Chips produced by immobilizing the antigen peptide by the amine coupling method to a Series S Sencor Chip CM5 (GE Healthcare), or alternatively, chips produced by allowing preliminarily biotinylated antigen peptides to interact with and immobilize onto a Series S Sensor Chip SA (certified) (GE Healthcare) were used. Antibodies of interest were captured onto an antigen peptide-immobilized chip, and allowed to interact to each FcγR diluted with running buffer. To regenerate and repeatedly use the chip, the antibodies captured on the chip were washed off by reacting 10 mM glycine-HCl, pH 1.5.
(§2) The FcγR-binding activity of each antibody was assessed primarily using as an indicator the FcγR-binding activity and dissociation constant for FcγR.

[2] = biological target: T2, FcγRIIa R; experiment: SPR Biacore; vs GpH7-B3/GpL16-k0 =100
Description: as §1, §2

Binder	Ho/Con_2b [1]	Ho/Con_2aR [2]
B1	47.8 % of control	–
B2	68.5 % of control	–
B3	49.4 % of control	–
B4	103 % of control	–
B5	92.9 % of control	–
B6	–	60.2 % of control
B7	–	102 % of control
B8	–	77 % of control
B9	106 % of control	–
B10	140 % of control	–
B11	–	122 % of control
B12	–	56 % of control
B13	–	74.8 % of control
B14	–	100 % of control
B15	–	115 % of control
B16	–	116 % of control
B17	109 % of control	–
B18	–	146 % of control
B19	–	126 % of control
B20	109 % of control	–
B21	–	106 % of control
B22	83.1 % of control	–
B23	81.8 % of control	–
B24	90.1 % of control	–
B25	37.6 % of control	–

Binder	Ho/Con_2b [1]	Ho/Con_2aR [2]
B26	166 % of control	–
B27	170 % of control	–
B28	5.3 % of control	–
B29	54.9 % of control	–
B30	168 % of control	–
B31	–	95 % of control
B32	–	102 % of control
B33	–	102 % of control
B34	–	88.9 % of control
B35	35.3 % of control	–
B36	35.3 % of control	–
B37	25.7 % of control	–
B38	–	42.6 % of control
B39	102 % of control	–
B40	–	13 % of control
B41	63.9 % of control	–
B42	101 % of control	–
B43	–	49.9 % of control
B44	–	103 % of control
B45	132 % of control	–
B46	–	105 % of control
B47	–	106 % of control
B48	17.8 % of control	–
B49	104 % of control	–
